The values that follow come from patent publication US20210371491A1 (ALBERT LUDWIGS UNIVERSITAET FREIBURG, published 2021).

The target of this assay is prostate specific membrane antigen (PSMA) (UniProt Q04609 1-750, limits assumed). The assay is described as follows: cell-based or functional assay.
Chain of prostate specific membrane antigen (PSMA) (Q04609 whole entry, form in doubt): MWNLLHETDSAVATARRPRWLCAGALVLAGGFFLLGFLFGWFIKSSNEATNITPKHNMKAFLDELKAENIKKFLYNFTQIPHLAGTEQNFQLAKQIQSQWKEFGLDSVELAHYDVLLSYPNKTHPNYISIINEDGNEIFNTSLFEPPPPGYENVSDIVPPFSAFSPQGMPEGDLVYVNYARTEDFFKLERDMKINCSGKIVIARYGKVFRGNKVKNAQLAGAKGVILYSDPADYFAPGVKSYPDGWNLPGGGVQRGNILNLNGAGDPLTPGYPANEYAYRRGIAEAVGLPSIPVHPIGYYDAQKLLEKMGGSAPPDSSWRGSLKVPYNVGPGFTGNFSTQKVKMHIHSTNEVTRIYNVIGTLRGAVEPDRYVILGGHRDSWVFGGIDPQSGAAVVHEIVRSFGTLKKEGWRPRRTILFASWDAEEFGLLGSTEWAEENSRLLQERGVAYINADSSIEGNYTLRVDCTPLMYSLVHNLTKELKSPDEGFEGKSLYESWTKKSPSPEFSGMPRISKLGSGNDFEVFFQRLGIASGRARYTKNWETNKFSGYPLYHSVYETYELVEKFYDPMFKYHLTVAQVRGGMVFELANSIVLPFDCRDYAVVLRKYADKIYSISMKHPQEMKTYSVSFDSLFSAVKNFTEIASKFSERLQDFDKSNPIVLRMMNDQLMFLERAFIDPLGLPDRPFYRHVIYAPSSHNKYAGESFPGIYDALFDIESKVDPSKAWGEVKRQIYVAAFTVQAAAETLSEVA

B1: CAR28, anti-PSMA CAR with CD28 co-stimulatory domain (scFv D7) (other)
chain: MDFQVQIFSFLLISASVIMSRMAQVQLQQSGAELVEPGASVKLSCKASGYTFTYFDINWLRQRPEQGLEWIGGISPGDGNTNYNENFKGKATLTIDKSSTTAYIQLSRLTSEDSAVYFCARDGNFPYYAMDSWGQGTSVTVSSAKTTPKLGGGGSGGGGSGGGGSARVDIELTQSPLSLPVILGDQASISCRSSQSLVHSNGNTYLHWFLQKPGQSPKLLIYTVSNRFSGVPDRFSGSGSGTDFTLKISRVEAEDLGVYFCSQSTHVPTFGGGTKLEIKRSDPAEPKSPDKTHTCPPCPAPPVAGPSVFLFPPKPKDTLMIARTPEVTCVVVDVSHEDPEVKFNWYVDGVEVHNAKTKPREEQYNSTYRVVSVLTVLHQDWLNGKEYKCKVSNKALPAPIEKTISKAKGQPREPQVYTLPPSRDELTKNQVSLTCLVKGFYPSDIAVEWESNGQPENNYKTTPPVLDSDGSFFLYSKLTVDKSRWQQGNVFSCSVMHEALHNHYTQKSLSLSPGKKDPKFWVLVVVGGVLACYSLLVTVAFIIFWVRSKRSRLLHSDYMNMTPRRPGPTRKHYQAYAAARDFAAYRSLRVKFSRSADAPAYQQGQNQLYNELNLGRREEYDVLDKRRGRDPEMGGKPRRKNPQEGLYNELQKDKMAEAYSEIGMKGERRRGKGHDGLYQGLSTATKDTYDALHMQALPPR
On to B1, for which the “cytotoxicity (XTT assay), PSMA expressing cells eliminated at E:T ratio 1:1” value was at most 90% and the “cytotoxicity (XTT assay), target cells eliminated at E:T ratio 1:4, 48 h co-culture with C4-2 cells” value was around 90%.

B2: CAR41, anti-PSMA CAR with 4-1BB co-stimulatory domain (scFv D7) (other)
chain: MDFQVQIFSFLLISASVIMSRMAQVQLQQSGAELVEPGASVKLSCKASGYTFTYFDINWLRQRPEQGLEWIGGISPGDGNTNYNENFKGKATLTIDKSSTTAYIQLSRLTSEDSAVYFCARDGNFPYYAMDSWGQGTSVTVSSAKTTPKLGGGGSGGGGSGGGGSARVDIELTQSPLSLPVILGDQASISCRSSQSLVHSNGNTYLHWFLQKPGQSPKLLIYTVSNRFSGVPDRFSGSGSGTDFTLKISRVEAEDLGVYFCSQSTHVPTFGGGTKLEIKRAAALPAEPKSPDKTHTCPPCPAPPVAGPSVFLFPPKPKDTLMIARTPEVTCVVVDVSHEDPEVKFNWYVDGVEVHNAKTKPREEQYNSTYRVVSVLTVLHQDWLNGKEYKCKVSNKALPAPIEKTISKAKGQPREPQVYTLPPSRDELTKNQVSLTCLVKGFYPSDIAVEWESNGQPENNYKTTPPVLDSDGSFFLYSKLTVDKSRWQQGNVFSCSVMHEALHNHYTQKSLSSLSPGKKIYIWAPLAGTCGVLLLSLVITLYCKRGRKKLLYIFKQPFMRPVQTTQEEDGCSCRFPEEEEGGCELLRVKFSRSADAPAYQQGQNQLYNELNLGRREEYDVLDKRRGRDPEMGGKPRRKNPQEGLYNELQKDKMAEAYSEIGMKGERRRGKGHDGLYQGLSTATKDTYDALHMQALPPR
For the molecule B2, the “cytotoxicity (XTT assay), PSMA expressing cells eliminated at E:T ratio 1:1” value was at most 90%.
